The target in assay [1] is T1, α-bungarotoxin (UniProt P60615 22-95).
T1 sequence: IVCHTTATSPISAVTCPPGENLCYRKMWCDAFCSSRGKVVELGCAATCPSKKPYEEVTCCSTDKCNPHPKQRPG

Assay [2] concerns the target T1, α-bungarotoxin. In words: stopped-flow spectrofluorimetry, excitation 280 nm, emission above 305 nm.
Assay [3] has as its target T1, α-bungarotoxin. As to the kind of experiment: stopped-flow spectrofluorimetry.

B1: Aplysia californica acetylcholine binding protein (AChBP) (other)
chain: HSQANLMRLKSDLFNRSPMYPGPTKDDPLTVTLGFTLQDIVKADSSTNEVDLVYYEQQRWKLNSLMWDPNEYGNITDFRTSAADIWTPDITAYSSTRPVQVLSPQIAVVTHDGSVMFIPAQRLSFMCDPTGVDSEEGATCAVKFGSWVYSGFEIDLKTDTDQVDLSSYYASSKYEILSATQTRQVQHYSCCPEPYIDVNLVVKFRERRAGNGFFRNLFD
B1 gave a Kd with α-bungarotoxin [1] of 250 nM. In addition, the kon with α-bungarotoxin [2] turned out to be 1e+06 M⁻¹ s⁻¹. Moreover, in the assay with α-bungarotoxin [3], the dissociation rate constant (koff) came to 0.32 s⁻¹.

Values taken from patent publication US20050143285A1 (published 2005).
